Source: patent US11180777B2, “Cell fraction and method of generating a cell fraction containing a protein of interest” (Corning Incorporated, priority 2015, dated 2021)

T1: Aldehyde Oxidase (AO) (Homo sapiens, UniProt Q06278)
T1 construct: made in house; host or cells: HEK293 cells, transfected by electroporation; supernatant (soluble fraction) after the 37,000 rpm spin
T1 sequence (Q06278 1-1338): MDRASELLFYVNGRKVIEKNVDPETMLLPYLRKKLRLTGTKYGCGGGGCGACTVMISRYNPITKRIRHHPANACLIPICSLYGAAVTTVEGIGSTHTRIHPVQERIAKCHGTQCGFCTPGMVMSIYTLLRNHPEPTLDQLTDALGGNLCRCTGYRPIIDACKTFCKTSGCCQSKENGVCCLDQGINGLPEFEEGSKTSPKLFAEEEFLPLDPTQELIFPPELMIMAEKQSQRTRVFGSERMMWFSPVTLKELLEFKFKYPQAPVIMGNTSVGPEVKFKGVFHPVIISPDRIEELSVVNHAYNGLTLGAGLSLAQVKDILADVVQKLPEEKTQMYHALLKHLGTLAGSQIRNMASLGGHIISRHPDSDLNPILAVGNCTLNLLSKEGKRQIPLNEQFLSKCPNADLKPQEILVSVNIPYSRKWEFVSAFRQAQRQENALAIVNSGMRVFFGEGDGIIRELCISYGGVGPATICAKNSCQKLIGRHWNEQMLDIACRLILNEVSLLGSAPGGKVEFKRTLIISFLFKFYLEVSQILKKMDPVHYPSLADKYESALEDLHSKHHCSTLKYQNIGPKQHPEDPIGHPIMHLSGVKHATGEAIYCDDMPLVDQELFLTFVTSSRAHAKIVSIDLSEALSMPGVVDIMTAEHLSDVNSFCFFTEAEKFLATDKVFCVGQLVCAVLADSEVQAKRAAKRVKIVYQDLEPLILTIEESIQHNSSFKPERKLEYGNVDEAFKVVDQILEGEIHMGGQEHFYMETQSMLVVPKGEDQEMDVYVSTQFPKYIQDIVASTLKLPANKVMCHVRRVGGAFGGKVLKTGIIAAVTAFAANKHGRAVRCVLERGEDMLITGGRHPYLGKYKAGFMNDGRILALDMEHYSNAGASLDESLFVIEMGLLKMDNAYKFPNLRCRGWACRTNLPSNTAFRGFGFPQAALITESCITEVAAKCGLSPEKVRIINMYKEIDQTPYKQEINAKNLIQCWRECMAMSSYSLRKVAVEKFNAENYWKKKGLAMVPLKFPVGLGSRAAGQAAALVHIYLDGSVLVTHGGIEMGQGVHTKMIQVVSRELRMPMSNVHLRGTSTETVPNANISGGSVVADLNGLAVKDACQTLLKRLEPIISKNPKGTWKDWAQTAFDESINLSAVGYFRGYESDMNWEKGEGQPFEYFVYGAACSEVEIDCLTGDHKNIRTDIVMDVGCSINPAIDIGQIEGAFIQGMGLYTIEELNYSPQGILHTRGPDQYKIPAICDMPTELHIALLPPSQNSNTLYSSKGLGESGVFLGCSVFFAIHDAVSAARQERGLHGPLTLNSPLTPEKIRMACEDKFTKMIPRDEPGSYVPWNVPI

T2: UGT1A1 (Homo sapiens, UniProt P22309)
T2 construct: made in house; host or cells: HEK293 cells, electroporated with UGT1A1 cDNA; microsomes (membrane pellet)
T2 sequence (P22309 26-533): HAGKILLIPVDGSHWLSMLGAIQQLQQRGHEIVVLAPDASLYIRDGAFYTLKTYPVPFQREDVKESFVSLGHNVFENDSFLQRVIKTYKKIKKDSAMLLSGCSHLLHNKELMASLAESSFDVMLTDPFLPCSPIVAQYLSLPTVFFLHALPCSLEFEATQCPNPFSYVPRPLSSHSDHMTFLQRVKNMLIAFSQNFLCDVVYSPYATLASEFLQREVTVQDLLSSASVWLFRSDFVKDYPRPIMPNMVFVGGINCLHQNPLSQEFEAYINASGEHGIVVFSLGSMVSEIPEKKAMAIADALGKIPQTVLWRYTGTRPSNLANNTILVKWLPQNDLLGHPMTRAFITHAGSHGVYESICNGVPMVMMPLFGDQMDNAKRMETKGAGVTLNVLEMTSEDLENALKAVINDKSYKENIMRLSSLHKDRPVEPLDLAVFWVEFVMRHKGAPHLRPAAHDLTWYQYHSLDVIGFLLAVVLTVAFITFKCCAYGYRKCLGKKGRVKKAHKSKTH


Columns and labels:
[1] = target: T1, Aldehyde Oxidase (AO); experiment: AO assay with probe substrate phthalazine (HPLC); format: biochemical; conditions: rAO prepared with transfected HEK293 cells
Experimental: (§1) The recombinant AO and UGT1A1 enzymes were prepared as following. Briefly, the cells pellets obtained from the cell recovery step were washed once with phosphate buffered saline (PBS) and centrifuged at 1500 rpm for 10 min at 4° C. The resulting pellet was diluted with appropriate amount of 0.1 M potassium phosphate buffer, and transferred into Dounce Homogenizer followed with 10 stokes. The cell lysate was centrifuged at 2600 rpm for 10 minutes at 4° C. The supernatant was transferred to a new set of centrifuge tube and spun at 37,000 rpm for 15 minutes at 4° C. For recombinant AO, the supernatant (soluble fraction) was aliquoted and stored at −80° C. until use. For UGT1A1 microsomes, the pellet was resuspended in an appropriate amount of 0.1M Tris buffer and homogenized with a Dounce homogenizer with 10 strokes. The UGT1A1 microsomes were aliquoted and stored at −80° C. until use.
AO assays are carried out at 37° C. in 25 mM potassium phosphate buffer (pH7.4) containing 0.1 mM EDTA. 170 μL assay buffer was mixed with 20 μL 1 mM phthalazine and prewarmed to 37° C. in heat block. The reaction is initiated with 10 μL 5 mg/mL AO sample. The cap needs to be opened for oxygen circulation. After incubation, the reaction was stopped by the addition of 100 ul 94% acetonitrile/6% glacial acetic acid. The reaction mix was centrifuged (10,000×g) for 3 minutes and supernatant was analyzed on HPLC.

[2] = target: T2, UGT1A1; experiment: UGT1A1 assay (beta-estradiol glucuronidation, HPLC); format: biochemical; conditions: electroporation method versus BEVs system
Experimental: as §1
A 0.2 ml reaction mixture containing 1.0 mg/ml protein, 2 mM uridine diphosphoglucuronic acid (UDPGA), 10 mM magnesium chloride, 0.025 mg/ml alamethicin and 150 uM beta-estradiol in 50 mM Tris (pH 7.5) was incubated at 37° C. for 30 minutes. After incubation, the reaction was stopped by the addition of 50 ul 94% acetonitrile/6% glacial acetic acid. The reaction mix was centrifuged (10,000×g) for 3 minutes and supernatant was analyzed on HPLC.

Row | Molecule | AO kinetics with phthalazine [1] | UGT1A1 activity relative to UGT1A1 expressed with the BEVs system [2] [×]
1 | Aldehyde Oxidase (AO): recombinant Phase 1 drug metabolizing enzyme Aldehyde Oxidase prepared with transfected HEK293 cells (soluble fraction) | exhibited standard michaelis-mention kinetics curve | 
2 | UGT1A1: UGT1A1 expressed using the electroporation method (HEK293 microsomes) (protein, UniProt P22309 26-533, looked up) UDP-glucuronosyltransferase …: HAGKILLIPVDGSHWLSMLGAIQQLQQRGHEIVVLAPDASLYIRDGAFYTLKTYPVPFQREDVKESFVSLGHNVFENDSFLQRVIKTYKKIKKDSAMLLSGCSHLLHNKELMASLAESSFDVMLTDPFLPCSPIVAQYLSLPTVFFLHALPCSLEFEATQCPNPFSYVPRPLSSHSDHMTFLQRVKNMLIAFSQNFLCDVVYSPYATLASEFLQREVTVQDLLSSASVWLFRSDFVKDYPRPIMPNMVFVGGINCLHQNPLSQEFEAYINASGEHGIVVFSLGSMVSEIPEKKAMAIADALGKIPQTVLWRYTGTRPSNLANNTILVKWLPQNDLLGHPMTRAFITHAGSHGVYESICNGVPMVMMPLFGDQMDNAKRMETKGAGVTLNVLEMTSEDLENALKAVINDKSYKENIMRLSSLHKDRPVEPLDLAVFWVEFVMRHKGAPHLRPAAHDLTWYQYHSLDVIGFLLAVVLTVAFITFKCCAYGYRKCLGKKGRVKKAHKSKTH |  | 5
